Source: article PMC5779224 (2017)

Tests used:
Experiment in all cases: ITC
[1] = biological target: T1, AnkB 28–965 (MBD + AI-c + AI-b) (human, UniProt Q01484-2 28-965)
T1 chain: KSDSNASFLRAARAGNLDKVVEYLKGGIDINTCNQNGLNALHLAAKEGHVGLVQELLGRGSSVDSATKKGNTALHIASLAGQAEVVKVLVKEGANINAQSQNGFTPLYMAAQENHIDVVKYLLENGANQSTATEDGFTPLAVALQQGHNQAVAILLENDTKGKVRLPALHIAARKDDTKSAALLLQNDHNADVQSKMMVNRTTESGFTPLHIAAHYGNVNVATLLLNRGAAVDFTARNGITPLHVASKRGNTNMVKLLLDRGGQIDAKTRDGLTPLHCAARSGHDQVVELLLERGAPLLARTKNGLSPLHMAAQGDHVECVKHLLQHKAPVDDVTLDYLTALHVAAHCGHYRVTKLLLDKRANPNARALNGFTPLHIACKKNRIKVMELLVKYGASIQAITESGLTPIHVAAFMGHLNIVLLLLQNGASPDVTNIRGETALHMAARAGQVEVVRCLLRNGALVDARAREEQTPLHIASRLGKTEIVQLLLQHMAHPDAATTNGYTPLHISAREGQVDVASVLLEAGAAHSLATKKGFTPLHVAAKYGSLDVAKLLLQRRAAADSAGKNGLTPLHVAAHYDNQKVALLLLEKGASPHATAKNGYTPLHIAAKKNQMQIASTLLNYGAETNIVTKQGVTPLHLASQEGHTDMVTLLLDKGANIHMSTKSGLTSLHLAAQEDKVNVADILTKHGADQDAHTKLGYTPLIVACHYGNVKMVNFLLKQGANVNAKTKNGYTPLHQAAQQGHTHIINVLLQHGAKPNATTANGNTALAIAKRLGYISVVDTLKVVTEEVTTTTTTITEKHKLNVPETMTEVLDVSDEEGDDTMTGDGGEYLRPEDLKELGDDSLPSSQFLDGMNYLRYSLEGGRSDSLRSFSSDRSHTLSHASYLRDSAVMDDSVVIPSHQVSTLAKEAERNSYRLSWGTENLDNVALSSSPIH

[2] = biological target: T2, AnkB 28–847 (MBD + partial AI-c) (human, UniProt Q01484-2 28-847)
T2 chain: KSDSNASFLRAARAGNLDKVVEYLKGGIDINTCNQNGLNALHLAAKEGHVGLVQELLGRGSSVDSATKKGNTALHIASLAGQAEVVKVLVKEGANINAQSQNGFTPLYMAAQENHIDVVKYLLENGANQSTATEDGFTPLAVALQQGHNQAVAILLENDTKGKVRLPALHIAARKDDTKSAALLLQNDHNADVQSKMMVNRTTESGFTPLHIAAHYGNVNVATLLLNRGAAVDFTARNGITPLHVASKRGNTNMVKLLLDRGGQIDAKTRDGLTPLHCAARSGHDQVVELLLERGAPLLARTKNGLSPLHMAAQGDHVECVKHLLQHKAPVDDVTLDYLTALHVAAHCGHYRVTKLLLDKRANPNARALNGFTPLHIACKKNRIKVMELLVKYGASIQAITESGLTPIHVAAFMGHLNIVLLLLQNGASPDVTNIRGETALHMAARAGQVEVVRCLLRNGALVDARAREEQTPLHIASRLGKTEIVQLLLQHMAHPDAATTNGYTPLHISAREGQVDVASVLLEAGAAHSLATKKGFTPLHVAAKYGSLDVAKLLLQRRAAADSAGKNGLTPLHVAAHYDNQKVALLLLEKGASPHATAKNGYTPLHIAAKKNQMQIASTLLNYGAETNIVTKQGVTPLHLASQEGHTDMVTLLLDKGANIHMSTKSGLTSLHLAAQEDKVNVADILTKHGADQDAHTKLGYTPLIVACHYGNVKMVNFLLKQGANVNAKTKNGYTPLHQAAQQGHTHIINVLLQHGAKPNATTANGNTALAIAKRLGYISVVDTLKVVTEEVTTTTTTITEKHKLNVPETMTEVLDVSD

AnkB ΔZZUD = biological target: T3, AnkB ΔZZUD (human, UniProt Q01484-2 1-1872)
T3 chain: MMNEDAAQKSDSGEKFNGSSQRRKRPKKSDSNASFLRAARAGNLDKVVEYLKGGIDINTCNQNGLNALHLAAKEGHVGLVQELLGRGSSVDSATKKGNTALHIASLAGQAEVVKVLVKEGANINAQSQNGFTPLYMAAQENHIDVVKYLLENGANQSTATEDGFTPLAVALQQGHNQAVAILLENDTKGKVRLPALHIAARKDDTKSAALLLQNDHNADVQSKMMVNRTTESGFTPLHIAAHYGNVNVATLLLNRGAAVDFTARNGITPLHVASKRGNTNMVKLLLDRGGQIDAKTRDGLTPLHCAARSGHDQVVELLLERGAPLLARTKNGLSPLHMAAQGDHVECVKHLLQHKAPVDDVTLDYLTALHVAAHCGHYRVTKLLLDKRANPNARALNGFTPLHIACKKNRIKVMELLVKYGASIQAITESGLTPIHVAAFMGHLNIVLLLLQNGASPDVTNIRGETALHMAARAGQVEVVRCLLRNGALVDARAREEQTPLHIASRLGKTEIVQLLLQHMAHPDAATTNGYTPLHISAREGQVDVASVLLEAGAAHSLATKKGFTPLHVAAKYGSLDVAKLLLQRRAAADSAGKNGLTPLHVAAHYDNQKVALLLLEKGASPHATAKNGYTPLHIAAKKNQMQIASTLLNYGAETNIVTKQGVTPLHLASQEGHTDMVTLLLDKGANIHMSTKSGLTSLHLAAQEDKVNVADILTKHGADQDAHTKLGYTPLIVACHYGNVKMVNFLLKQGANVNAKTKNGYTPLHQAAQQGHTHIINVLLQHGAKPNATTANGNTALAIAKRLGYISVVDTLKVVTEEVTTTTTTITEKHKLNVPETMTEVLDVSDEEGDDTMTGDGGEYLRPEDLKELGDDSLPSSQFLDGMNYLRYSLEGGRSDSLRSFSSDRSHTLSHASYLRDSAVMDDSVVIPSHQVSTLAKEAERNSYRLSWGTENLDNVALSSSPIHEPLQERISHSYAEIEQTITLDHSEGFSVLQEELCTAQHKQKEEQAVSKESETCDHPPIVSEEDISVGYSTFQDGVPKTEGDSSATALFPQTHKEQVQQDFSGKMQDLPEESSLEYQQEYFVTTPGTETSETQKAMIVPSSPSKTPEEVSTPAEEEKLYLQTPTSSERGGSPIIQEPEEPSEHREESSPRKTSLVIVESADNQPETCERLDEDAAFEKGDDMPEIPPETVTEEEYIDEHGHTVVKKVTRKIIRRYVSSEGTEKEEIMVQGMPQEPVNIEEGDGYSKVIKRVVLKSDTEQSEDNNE

Kd [1]: 23 µM
Kd [2]: 0.49 µM
Kd (AnkB ΔZZUD): 14 µM
Binder: SDDSLVDYGEGGEGQFNEDGSFIGQYTV (domain or fragment) [NF186 (aa 1187–1214)]
